# Legend:
# [1] = target: high-affinity oncomodulin receptor on retinal ganglion cells (RGCs) (rat); experiment: cell-based or functional assay
# [2] = target: high-affinity oncomodulin receptor on retinal ganglion cells (RGCs) (rat); experiment: displacement of AP-OM (40 nM, equilibrium binding) from RGCs by unlabeled oncomodulin
# [3] = target: high-affinity oncomodulin receptor on retinal ganglion cells (RGCs) (rat); experiment: AP-OM binding to lightly fixed, forskolin-treated immunopurified rat RGCs; saturation curve
# [4] = target: high-affinity oncomodulin receptor on retinal ganglion cells (RGCs) (rat); experiment: AP-OM binding to lightly fixed, forskolin-treated immunopurified rat RGCs; saturation curve and Scatchard plot
effective concentration for half-maximum response (EC50) of axon outgrowth from RGCs [1],IC50 [2],concentration at which binding saturated [3],Kd [4],Substance
3.8 nM,30 nM,,,recombinant rat oncomodulin (from UniProt P02631 2-109) (ligand)
,,> 100 nM,28 nM,alkaline phosphatase (AP)-oncomodulin fusion protein (from UniProt P02631 1-109) (ligand)

# Reference: US20090156496A1, “METHODS AND COMPOSITIONS FOR TREATING AND PREVENTING PERIPHERAL NERVE DAMAGE” (CHILDREN'S MEDICAL CENTER CORPORATION, INC., priority 2006, published 2009)
